In article PMC5383425, “Differential CLE peptide perception by plant receptors implicated from structural and functional analyses of TDIF-TDR interactions” (PLoS ONE, 2017):
Substitutions are numbered along the chain they refer to. Square brackets hold non-standard residues; d marks the D form. Ends that are not written are not given here. Hyp = O=C(O)[C@@H]1C[C@@H](O)CN1

Columns and labels:
[1] = biological target: T1, ecdTDR F281 alanine mutant (Arabidopsis thaliana, UniProt Q9FII5 30-642, alanine substitution of F281); assay: ITC; 0.5–1 mM peptide titrated into 10–40 μM ecdTDR; 25°C; 10 mM sodium citrate, 100 mM NaCl, pH 5.5; fitted to one set of binding sites; MicroCal Auto-iTC200; conditions: both partners purified
T1 construct: TDR/PXY of A. thaliana, extracellular domain, residues 30-642; The text says only 'mutational analyses' of F281; source: High Five insect cells (baculovirus), secreted, purified as the wild type (Ni-NTA, size-exclusion chromatography)
T1 sequence (looked up): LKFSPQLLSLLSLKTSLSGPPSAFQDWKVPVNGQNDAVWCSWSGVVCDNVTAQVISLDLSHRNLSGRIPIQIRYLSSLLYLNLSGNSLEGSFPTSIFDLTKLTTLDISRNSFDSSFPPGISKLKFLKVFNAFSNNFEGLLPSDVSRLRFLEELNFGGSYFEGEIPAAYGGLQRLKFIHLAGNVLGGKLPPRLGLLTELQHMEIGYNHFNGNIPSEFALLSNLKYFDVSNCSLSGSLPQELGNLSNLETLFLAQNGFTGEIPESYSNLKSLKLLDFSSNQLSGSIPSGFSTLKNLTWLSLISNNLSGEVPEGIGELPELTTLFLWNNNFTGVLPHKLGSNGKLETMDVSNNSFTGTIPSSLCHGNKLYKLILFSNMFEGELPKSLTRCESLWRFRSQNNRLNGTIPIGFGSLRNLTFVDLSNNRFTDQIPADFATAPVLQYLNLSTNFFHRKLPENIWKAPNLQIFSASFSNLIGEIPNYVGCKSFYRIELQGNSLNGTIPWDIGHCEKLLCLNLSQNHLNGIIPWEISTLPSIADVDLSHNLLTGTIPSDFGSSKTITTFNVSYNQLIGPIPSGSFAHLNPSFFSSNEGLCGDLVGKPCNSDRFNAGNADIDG

[2] = biological target: T2, ecdTDR G186A mutant (Arabidopsis thaliana, UniProt Q9FII5 30-642, G186A); assay: as above; conditions: both partners purified
T2 construct: TDR/PXY of A. thaliana, extracellular domain, residues 30-642; source: High Five insect cells (baculovirus), secreted, purified as the wild type (Ni-NTA, size-exclusion chromatography)
T2 sequence (looked up): T1 sequence (looked up) with G157A, A252F

[3] = biological target: T3, TDR-R421A/R423A double mutant (ecdTDR) (Arabidopsis thaliana, UniProt Q9FII5 30-642, R421A | R423A); assay: ITC
T3 sequence: T1 sequence (looked up) with A252F, R392A, R394A

[4] = biological target: T4, ecdTDR F279 alanine mutant (Arabidopsis thaliana, UniProt Q9FII5 30-642, alanine substitution of F279); assay: ITC
T4 sequence: T1 sequence (looked up) with F250A, A252F

B1: Tracheary Element Differentiation Inhibitory Factor (TDIF) peptide (peptide)
peptide: HEV[Hyp]SG[Hyp]NPISN
notes: TDIF, the 12-residue CLE peptide processed from CLE41 and CLE44 of A. thaliana; printed as HEV(Hyp)SG(Hyp)NPISN; numbers count on: the 12-residue peptide; CLE44 encodes the same peptide; also called wild type TDIF; wtTDIF; source: synthetic peptide (peptide 2.0)
- binding result [1]: binds
- binding result [2]: binds
- Kd [3]: 306 nM
- Kd [4]: 307 nM
